Among the data in PMC10364586 are Kd, koff and kon values, retold here.

The assay has as its target PADI4 (peptidyl-arginine deiminase 4), recombinant, dimeric (human) (UniProt Q9UM07). Kind of assay: BLI.

PADI4 (peptidyl-arginine deiminase 4), recombinant, dimeric (human), sequence (Q9UM07 whole entry): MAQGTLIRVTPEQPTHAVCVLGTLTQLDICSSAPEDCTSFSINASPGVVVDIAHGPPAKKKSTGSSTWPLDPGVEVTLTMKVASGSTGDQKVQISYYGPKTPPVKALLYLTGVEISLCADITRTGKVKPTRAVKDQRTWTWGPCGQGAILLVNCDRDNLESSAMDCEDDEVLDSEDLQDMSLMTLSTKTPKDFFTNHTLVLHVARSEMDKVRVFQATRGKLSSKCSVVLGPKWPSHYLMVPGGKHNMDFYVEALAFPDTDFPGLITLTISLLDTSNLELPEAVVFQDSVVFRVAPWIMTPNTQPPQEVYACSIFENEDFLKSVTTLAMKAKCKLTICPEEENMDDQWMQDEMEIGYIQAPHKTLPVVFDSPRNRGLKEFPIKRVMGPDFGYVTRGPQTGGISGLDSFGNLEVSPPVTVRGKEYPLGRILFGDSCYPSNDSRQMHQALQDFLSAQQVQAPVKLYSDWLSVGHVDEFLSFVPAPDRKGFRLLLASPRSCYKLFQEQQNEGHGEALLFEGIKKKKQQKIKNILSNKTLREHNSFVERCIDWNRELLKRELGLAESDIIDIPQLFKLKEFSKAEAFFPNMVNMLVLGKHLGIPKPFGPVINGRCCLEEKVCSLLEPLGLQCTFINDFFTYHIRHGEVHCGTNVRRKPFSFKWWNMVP

One may read the Kd as the constant that tells how readily two partners part at equilibrium. The term koff denotes the first-order rate constant of dissociation. One may read the kon as a measure of how fast the partners come together. For the substance “N-MDM2 derived from GST-tagged N-MDM2, GST-tag removed with thrombin (domain or fragment)”, the Kd was found to be 2 µM, the off-rate constant (koff) was 0.3 s⁻¹ and the kon amounted to 170000 M⁻¹ s⁻¹.
